Experiments:
[1] = target: T1, wild-type Aquaporin-2 (untagged) (human, UniProt P41181 1-271)
T1 sequence (looked up): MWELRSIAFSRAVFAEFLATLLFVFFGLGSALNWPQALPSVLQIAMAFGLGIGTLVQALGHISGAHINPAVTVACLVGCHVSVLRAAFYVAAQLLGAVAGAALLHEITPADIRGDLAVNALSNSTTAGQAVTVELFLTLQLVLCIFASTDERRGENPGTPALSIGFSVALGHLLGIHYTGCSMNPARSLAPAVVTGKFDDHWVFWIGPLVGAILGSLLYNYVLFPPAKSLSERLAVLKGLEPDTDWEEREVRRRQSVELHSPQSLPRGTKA

[2] = target: T1, wild-type Aquaporin-2 (untagged); remark: listed apart in the source
[3] = target: T1, wild-type Aquaporin-2 (untagged); assay: cell-based or functional assay
[4] = target: T2, GFP-tagged wild-type Aquaporin-2 (human, UniProt P41181 1-271); assay: co-IP; Xenopus oocytes co-injected with 0.5 ng mRNA of an untagged AQP2 variant and 1 ng (equimolar) of a GFP-tagged form, 24 h; total membranes solubilised in 2% deoxycholate in PBS, 100,000 x g supernatant; IP with goat anti-GFP and protein-G magnetic beads at room temperature; blot with anti-AQP2 of the untagged 29 kDa band; densitometry in % of wt-AQP2, 4 assays; conditions: partners not purified
T2 construct: Aquaporin-2 (AQP2), human, wild type, from pT7Ts-GFP-AQP2 (subcloned through the pAc-GFP vector); 58 kDa with GFP; also called GFP-wt-AQP2; GFP-tagged-WT; source: Xenopus laevis oocytes, cRNA injected; total membranes solubilised in 2% deoxycholate
T2 sequence (looked up): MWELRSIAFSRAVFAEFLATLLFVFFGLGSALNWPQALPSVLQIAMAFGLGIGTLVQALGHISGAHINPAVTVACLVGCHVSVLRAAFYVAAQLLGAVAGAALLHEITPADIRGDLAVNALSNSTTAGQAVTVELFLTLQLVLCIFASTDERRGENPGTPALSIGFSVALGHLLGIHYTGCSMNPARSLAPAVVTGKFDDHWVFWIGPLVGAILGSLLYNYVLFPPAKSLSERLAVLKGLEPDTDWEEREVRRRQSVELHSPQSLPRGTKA

[5] = target: T3, GFP-tagged Aquaporin-2 V24A (human, UniProt P41181 1-271, V24A); assay: as above; conditions: partners not purified
T3 construct: Aquaporin-2 (AQP2), human, recessive NDI mutation V24A, GFP-tagged form; The methods describe only how pT7Ts-GFP-AQP2 (wild type) was made; also called GFP-tagged V24A; source: Xenopus laevis oocytes, cRNA injected; total membranes solubilised in 2% deoxycholate
T3 sequence (looked up): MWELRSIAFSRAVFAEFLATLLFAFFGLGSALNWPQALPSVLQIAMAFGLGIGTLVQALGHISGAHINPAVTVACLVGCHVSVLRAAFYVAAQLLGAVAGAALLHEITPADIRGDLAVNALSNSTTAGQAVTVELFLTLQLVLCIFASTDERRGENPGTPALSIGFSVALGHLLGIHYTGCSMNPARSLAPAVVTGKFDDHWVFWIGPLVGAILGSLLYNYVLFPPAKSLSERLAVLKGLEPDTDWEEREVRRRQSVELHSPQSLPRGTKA

[6] = target: T4, GFP-tagged Aquaporin-2 D150E (human, UniProt P41181 1-271, D150E); assay: as above; conditions: partners not purified
T4 construct: Aquaporin-2 (AQP2), human, recessive NDI mutation D150E, GFP-tagged form; The methods describe only how pT7Ts-GFP-AQP2 (wild type) was made; also called GFP-tagged D150E; source: Xenopus laevis oocytes, cRNA injected; total membranes solubilised in 2% deoxycholate
T4 sequence (looked up): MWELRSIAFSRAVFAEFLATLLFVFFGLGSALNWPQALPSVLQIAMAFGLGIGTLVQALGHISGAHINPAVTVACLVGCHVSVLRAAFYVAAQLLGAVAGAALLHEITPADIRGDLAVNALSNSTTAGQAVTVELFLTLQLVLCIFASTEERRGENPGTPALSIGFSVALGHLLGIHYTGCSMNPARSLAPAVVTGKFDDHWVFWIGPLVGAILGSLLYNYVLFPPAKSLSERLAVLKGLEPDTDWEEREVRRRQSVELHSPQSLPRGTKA

B1: Aquaporin-2 L22V (untagged) (natural protein)
chain: MWELRSIAFSRAVFAEFLATLVFVFFGLGSALNWPQALPSVLQIAMAFGLGIGTLVQALGHISGAHINPAVTVACLVGCHVSVLRAAFYVAAQLLGAVAGAALLHEITPADIRGDLAVNALSNSTTAGQAVTVELFLTLQLVLCIFASTDERRGENPGTPALSIGFSVALGHLLGIHYTGCSMNPARSLAPAVVTGKFDDHWVFWIGPLVGAILGSLLYNYVLFPPAKSLSERLAVLKGLEPDTDWEEREVRRRQSVELHSPQSLPRGTKA
**Q.** For B1, which net increase (gain of function) in water permeability (Pf) of oocytes when expressed along wt-AQP2, in % of the wt-AQP2 activity (% of the wt-AQP2 activity) [1] is on record?
**A.** Its net increase (gain of function) in water permeability (Pf) of oocytes when expressed along wt-AQP2, in % of the wt-AQP2 activity (% of the wt-AQP2 activity) is 106.

B2: Aquaporin-2 A147T (untagged) (natural protein)
chain: MWELRSIAFSRAVFAEFLATLLFVFFGLGSALNWPQALPSVLQIAMAFGLGIGTLVQALGHISGAHINPAVTVACLVGCHVSVLRAAFYVAAQLLGAVAGAALLHEITPADIRGDLAVNALSNSTTAGQAVTVELFLTLQLVLCIFTSTDERRGENPGTPALSIGFSVALGHLLGIHYTGCSMNPARSLAPAVVTGKFDDHWVFWIGPLVGAILGSLLYNYVLFPPAKSLSERLAVLKGLEPDTDWEEREVRRRQSVELHSPQSLPRGTKA
**Q.** Which net increase (gain of function) in water permeability (Pf) of oocytes when expressed along wt-AQP2, in % of the wt-AQP2 activity (% of the wt-AQP2 activity) [1] does the source give for B2 here?
**A.** Its net increase (gain of function) in water permeability (Pf) of oocytes when expressed along wt-AQP2, in % of the wt-AQP2 activity (% of the wt-AQP2 activity) is 45.

B3: Aquaporin-2 R254Q (untagged) (natural protein)
chain: MWELRSIAFSRAVFAEFLATLLFVFFGLGSALNWPQALPSVLQIAMAFGLGIGTLVQALGHISGAHINPAVTVACLVGCHVSVLRAAFYVAAQLLGAVAGAALLHEITPADIRGDLAVNALSNSTTAGQAVTVELFLTLQLVLCIFASTDERRGENPGTPALSIGFSVALGHLLGIHYTGCSMNPARSLAPAVVTGKFDDHWVFWIGPLVGAILGSLLYNYVLFPPAKSLSERLAVLKGLEPDTDWEEREVRRQQSVELHSPQSLPRGTKA
**Q.** With B3 as the binder, how does the water permeability (Pf) of oocytes injected with 1 ng mRNA mixtures of wt/mut ratios 4/0 to 0/4, in % of pure wt-AQP2; the printed value is of the 2/2 ratio; dominant negative effect (% of pure wt-AQP2) [2] read?
**A.** The water permeability (Pf) of oocytes injected with 1 ng mRNA mixtures of wt/mut ratios 4/0 to 0/4, in % of pure wt-AQP2; the printed value is of the 2/2 ratio; dominant negative effect (% of pure wt-AQP2) was 14.

B4: Aquaporin-2 T126M (untagged) (natural protein)
chain: MWELRSIAFSRAVFAEFLATLLFVFFGLGSALNWPQALPSVLQIAMAFGLGIGTLVQALGHISGAHINPAVTVACLVGCHVSVLRAAFYVAAQLLGAVAGAALLHEITPADIRGDLAVNALSNSTMAGQAVTVELFLTLQLVLCIFASTDERRGENPGTPALSIGFSVALGHLLGIHYTGCSMNPARSLAPAVVTGKFDDHWVFWIGPLVGAILGSLLYNYVLFPPAKSLSERLAVLKGLEPDTDWEEREVRRRQSVELHSPQSLPRGTKA
**Q.** How did the net increase (gain of function) in water permeability (Pf) of oocytes when expressed along wt-AQP2, in % of the wt-AQP2 activity (% of the wt-AQP2 activity) [1] turn out when B4 was run?
**A.** Its net increase (gain of function) in water permeability (Pf) of oocytes when expressed along wt-AQP2, in % of the wt-AQP2 activity (% of the wt-AQP2 activity) is 42.

B5: Aquaporin-2 R187C (untagged) (natural protein, human, UniProt P41181 1-271, looked up)
chain: MWELRSIAFSRAVFAEFLATLLFVFFGLGSALNWPQALPSVLQIAMAFGLGIGTLVQALGHISGAHINPAVTVACLVGCHVSVLRAAFYVAAQLLGAVAGAALLHEITPADIRGDLAVNALSNSTTAGQAVTVELFLTLQLVLCIFASTDERRGENPGTPALSIGFSVALGHLLGIHYTGCSMNPACSLAPAVVTGKFDDHWVFWIGPLVGAILGSLLYNYVLFPPAKSLSERLAVLKGLEPDTDWEEREVRRRQSVELHSPQSLPRGTKA
**Q.** How did the “gain of function in water permeability (Pf) of oocytes on coexpression with wt-AQP2 (specific activity with wt-AQP2 minus without), in % of wt-AQP2 activity; not functionally recovered” value [3] turn out when B5 was run?
**A.** The value was 0.4 % of wt-AQP2 activity.

B6: Aquaporin-2 V24A (untagged) (natural protein, human, UniProt P41181 1-271, looked up)
chain: MWELRSIAFSRAVFAEFLATLLFAFFGLGSALNWPQALPSVLQIAMAFGLGIGTLVQALGHISGAHINPAVTVACLVGCHVSVLRAAFYVAAQLLGAVAGAALLHEITPADIRGDLAVNALSNSTTAGQAVTVELFLTLQLVLCIFASTDERRGENPGTPALSIGFSVALGHLLGIHYTGCSMNPARSLAPAVVTGKFDDHWVFWIGPLVGAILGSLLYNYVLFPPAKSLSERLAVLKGLEPDTDWEEREVRRRQSVELHSPQSLPRGTKA
notes: Aquaporin-2 (AQP2), human, recessive NDI mutation V24A from reported clinical cases, made by site-directed mutagenesis in pT7Ts; also called rec-AQP2; source: Xenopus laevis oocytes, cRNA injected; total membranes solubilised in 2% deoxycholate
**Q.** What does the source list for B6?
**A.** gain of function in water permeability (Pf) of oocytes on coexpression with wt-AQP2 (specific activity with wt-AQP2 minus without), in % of wt-AQP2 activity [3]: 63.9 % of wt-AQP2 activity; water permeability (Pf) of oocytes injected with 1 ng mRNA mixtures of wt/mut ratios 4/0 to 0/4, in % of pure wt-AQP2; the printed value is of the 2/2 ratio [3]: 87 % of pure wt-AQP2; co-precipitated untagged band, densitometry in % of wt-AQP2 (wt/rec heteromers) [4]: 75 % of wt-AQP2; co-precipitated untagged band, densitometry in % of wt-AQP2 (rec/rec homomers) [5]: 26 % of wt-AQP2

B7: Aquaporin-2 D150E (untagged) (natural protein, human, UniProt P41181 1-271, looked up)
chain: MWELRSIAFSRAVFAEFLATLLFVFFGLGSALNWPQALPSVLQIAMAFGLGIGTLVQALGHISGAHINPAVTVACLVGCHVSVLRAAFYVAAQLLGAVAGAALLHEITPADIRGDLAVNALSNSTTAGQAVTVELFLTLQLVLCIFASTEERRGENPGTPALSIGFSVALGHLLGIHYTGCSMNPARSLAPAVVTGKFDDHWVFWIGPLVGAILGSLLYNYVLFPPAKSLSERLAVLKGLEPDTDWEEREVRRRQSVELHSPQSLPRGTKA
notes: Aquaporin-2 (AQP2), human, recessive NDI mutation D150E from reported clinical cases, made by site-directed mutagenesis in pT7Ts; also called rec-AQP2; source: Xenopus laevis oocytes, cRNA injected; total membranes solubilised in 2% deoxycholate
**Q.** Which results are given for B7?
**A.** gain of function in water permeability (Pf) of oocytes on coexpression with wt-AQP2 (specific activity with wt-AQP2 minus without), in % of wt-AQP2 activity [3]: 65.2 % of wt-AQP2 activity; co-precipitated untagged band, densitometry in % of wt-AQP2 (rec/rec homomers) [6]: 30 % of wt-AQP2; co-precipitated untagged band, densitometry in % of wt-AQP2 (wt/rec heteromers) [4]: 86 % of wt-AQP2

From paper PMC5027563, “Functional Recovery of AQP2 Recessive Mutations Through Hetero-Oligomerization with Wild-Type Counterpart” (Scientific Reports, 2016)
